Target: chicken IgY (chicken)
Experiment: BLI; Octet, SAX (streptavidin) biosensors; recombinant Fabs against IgY; KD from a kinetic 1:1 model, global fit over multiple concentrations (partial fits averaged for 3 low-affinity Fabs)

Binder	Kd [nM]	koff [s⁻¹]	kon [M⁻¹ s⁻¹]
clone 2.1 Fab CB_01 (clonal burst) (Fab, V domains shown) VH: EVQLQESGPSLVKPSQTLSLTCSVTGDSITSGYWNWIRKFPGNKLEYMGYISYSGSTYYNPSLKSRISFTRDTSKNQYYLQLNSVTTEDTATYYCARDFDVWGAGTTVTVSS VL: DIVMTQSQKFMSTSVGDRVSVTCKASQNVGTNVAWSQQKPGQSPKALIYSASYRYSGVPDRFTGSGSGTDFTLTISNVQSEDLAEYFCQQYKSYPLTFGSGTKLEIK	3.77	0.000398	105000
clone 2.1 Fab TA_13 (Fab, V domains shown) VH: EVQLQESGPSLVKPSQTLSLTCSVTGDSITSGYWNWIRKFPGNKLEYMGYISYSGSTYYNPSLKSRISITRDTSKNQYYLQLNSVTTEDTATYYCARDFDVWGAGTTVTVSS VL: DIVMTQSQKFMSTSVGDRVSVTCKASQNVGTNVGWFQQKPGQSPKALIYSASYRYSGVPDRFTGSGSGTDFTLTISNVQSEDLAEYFCHQYYSYPLTFGSGTKLEIK	0.549	0.000119	216000
clone 2.1 Fab TA_15 (Fab, V domains shown) VH: EVQLQESGPSLVKPSQTLSLTCSVTGDSITSGYWNWIRKFPGNKLEYMGYISYSGSTYYNPSLKSRISITRDTSKNQYYLQLNSVTTEDTATYYCARDFDVWGAGTTVTVSS VL: DIVMTQSQKFMSTSVGDRVSVTCKASQNVGTNVAWYQQKPGQSPKALIFSASYRYSGVPDRFTGSGSGTDFTLTISNVQSEDLAEYFCQQYNSYPLTFGSGTKLEIK	14.4	0.00168	116000
clone 2.1 Fab TA_26 (Fab, V domains shown) VH: EVQLQESGPSLVKPSQTLSLTCSVTGDSITSGYWNWIRKFPGNKLEYMGYISYSGSTYYNPSLKSRISITRDTSKNQYYLQLNSVTTEDTATYYCARDFDVWGAGTTVTVSS VL: DIVMTQSQKFMSTSVGDRVSVTCKASQNVGTNVAWYQQKPGQSPKALIYSASYRYSGVPDRFTGSGSGTDFTLTISNVQSEDLAEYFCQQYDSYPLTFGSGTKLEIK	58.5	0.00803	137000
clone 2.1 Fab TA_14 (Fab, V domains shown) VH: EVQLQESGPSLVKPSQTLSLTCSVTGDSITSGYWNWIRKFPGNKLEYMGYISYSGSTYYNPSLKSRISITRDTSKNQYYLQLNSVTTEDTATYYCARDFDVWGAGTTVTVSS VL: DIVMTQSQKFMSTSVGDRVSVTCKASQNVGTNVAWYQQKPGQSPKSLIYSASYRYSGVPDRFTGSGSGTDFTLTISNVQSEDLAEYFCQQYNSYPLTFGSGTKLEIK	6.25	0.00139	223000
clone 2.1 Fab TA_11 (Fab, V domains shown) VH: EVQLQESGPSLVKPSQTLSLTCSVTGDSITSGYWNWIRKFPGNRLEYMGYISYSGSTYYNPSLKSRISITRDTSKNQYYLQLNSVTTEDTATYYCARDFDVWGAGTTVTVSS VL: DIVMTQSQKFMSTSVGDRVSVTCKASQNVGTNVAWYQQKPGQSPKALIYSASYRYSGVPDRFTGSGSGTDFTLTISNVQSEDLAEYFCQQYNSYPLTFGSGTKLEIK	21.6	0.00331	153000
clone 2.1 Fab TA_19 (Fab, V domains shown) VH: EVQLQESGPSLVKPSQTLSLTCSVTGDSITSGYWNWIRKFPGNKLEYMGYISYSGSTYYNPSLKSRISITRDTSKNQYYLQLNSVTTEDTATYYCARDFDVWGAGTTVTVSS VL: DIVMTQSQKFMSTSVGDRVSVTCKASQNVGTNVGWFQQKPGQSPKSLIYSASYRYSGVPDRFTGSGSGTDFTLTISNVQSEDLAEYFCHQYYSYPLTFGSGTKLEIK	0.261	8.66e-05	331000
clone 2.1 Fab, unmutated (Fab, V domains shown) VH: EVQLQESGPSLVKPSQTLSLTCSVTGDSITSGYWNWIRKFPGNKLEYMGYISYSGSTYYNPSLKSRISITRDTSKNQYYLQLNSVTTEDTATYYCARDFDVWGAGTTVTVSS VL: DIVMTQSQKFMSTSVGDRVSVTCKASQNVGTNVAWYQQKPGQSPKALIYSASYRYSGVPDRFTGSGSGTDFTLTISNVQSEDLAEYFCQQYNSYPLTFGSGTKLEIK	26	0.00226	86700
clone 2.1 Fab TA_25 (Fab, V domains shown) VH: EVQLQESGPSLVKPSQTLSLTCSVTGDSITSGYWNWIRKFPGNKLEYMGYISYSGSTYYNPSLKSRISITRDTSKNQYYLQLNSVTTEDTATYYCARDFDVWGAGTTVTVSS VL: DIVMTQSQKFMSTSVGDRVSVTCKASQNVGTNVAWYQQKPGQSPKALIYSASYRYSGVPDRFTGSGSGTDFTLTISNVQSEDLAEYFCHQYYSYPLTFGSGTKLEIK	3.2	0.000412	129000
clone 2.1 Fab TA_16 (Fab, V domains shown) VH: EVQLQESGPSLVKPSQTLSLTCSVTGDSITSGYWNWIRKFPGNKLEYMGYISYSGSTYYNPSLKSRISITRDTSKNQYYLQLNSVTTEDTATYYCARDFDVWGAGTTVTVSS VL: DIVMTQSQKFMSTSVGDRVSVTCKASQNVGTNVGWYQQKPGQSPKSLIFSASYRYSGVPDRFTGSGSGTDFTLTISNVQSEDLAEYFCQQYNSYPLTFGSGTKLEIK	1.49	0.000329	221000
clone 2.1 Fab TA_10 (Fab, V domains shown) VH: EVQLQESGPSLVKPSQTLSLTCSVTGDSITSGYWNWIRRFPGNKLEYMGYISYSGSTYYNPSLKSRISITRDTSKNQYYLQLNSVTTEDTATYYCARDFDVWGAGTTVTVSS VL: DIVMTQSQKFMSTSVGDRVSVTCKASQNVGTNVAWYQQKPGQSPKALIYSASYRYSGVPDRFTGSGSGTDFTLTISNVQSEDLAEYFCQQYNSYPLTFGSGTKLEIK	22.3	0.0034	152000
clone 2.1 Fab CB_02 (clonal burst) (Fab, V domains shown) VH: EVQLQESGPSLVKPSQTLSLTCSVTGDSITSGYWNWIRKFPGNKLEYMGYISYSGSTYYNPSLKSRISITRDTSKNQYYLQLNSVTTEDTATYYCGRDFDVWGAGTTVTVSS VL: DIVMTQSQKFMSTSVGDRVSVTCKASQNVGTNVGWYQQKPGQSPKALIYSASYRYSGVPDRFTGSGSGTDFTLTISNVQSEDLAEYFCQQYNSYPLTFGSGTKLEIK	0.507	0.000123	244000
clone 2.1 Fab TA_12 (Fab, V domains shown) VH: EVQLQESGPSLVKPSQTLSLTCSVTGDSITSGYWNWIRKFPGNKLEYMGYISYSGSTYYNPSLKSRISITRDTSKNQYYLQLNSVTTEDTATYYCARDFDVWGAGTTVTVSS VL: DIVMTQSQKFMSTSVGDRVSVTCKASQNVGTNVAWFQQKPGQSPKALIYSASYRYSGVPDRFTGSGSGTDFTLTISNVQSEDLAEYFCQQYNSYPLTFGSGTKLEIK	22.7	0.00408	180000
clone 2.1 Fab TA_28 (Fab, V domains shown) VH: EVQLQESGPSLVKPSQTLSLTCSVTGDSITSGYWNWIRKFPGNKLEYMGYISYSGGTYYNPSLKSRISITRDTSKNQYYLQLNSVTTEDTATYYCARDFDVWGAGTTVTVSS VL: DIVMTQSQKFMSTSVGDRVSVTCKASQNVGTNVAWYQQKPGQSPKALIYSASYRYSGVPDRFTGSGSGTDFTLTISNVQSEDLAEYFCQQYNSYPLTFGSGTKLEIK	22	0.00309	140000
clone 2.1 Fab TA_22 (Fab, V domains shown) VH: EVQLQESGPSLVKPSQTLSLTCSVTGDSITSGYWNWIRKFPGNKLEYMGYISYSGSTYYNPSLKSRISITRDTSKNQYYLQLNSVTTEDTATYYCARDFDVWGAGTTVTVSS VL: DIVMTQSQKFMSTSVGDRVSVTCKASQNVGTNVAWYQQKPGQSPKALIYSASYRYSGVPDRFTGSGSGTDFTLTISNVQSEDLAEYFCQQYSSYPLTFGSGTKLEIK	14.9	0.00124	83500
clone 2.1 Fab TA_24 (Fab, V domains shown) VH: EVQLQESGPSLVKPSQTLSLTCSVTGDSITSGYWNWIRKFPGNKLEYMGYISYSGSTYYNPSLKSRISITRDTSKNQYYLQLNSVTTEDTATYYCARDFDVWGAGTTVTVSS VL: DIVMTQSQKFMSTSVGDRVSVTCKASQNVGTNVAWYQQKPGQSPKALIYSASYRYSGVPDRFTGSGSGTDFTLTISNVQSEDLAEYFCQQYYSYPLTFGSGTKLEIK	7.72	0.000911	118000
clone 2.1 Fab TA_27 (Fab, V domains shown) VH: EVQLQESGPSLVKPSQTLSLTCSVTGDSITSGYWNWIRKFPGNRLEYMGYISYSGSTYYNPSLKSRISITRDTSKNQYYLQLNSVTTEDTATYYCARDFDVWGAGTTVTVSS VL: DIVMTQSQKFMSTSVGDRVSVTCKASQNVGTNVGWFQQKPGQSPKSLIYSASYRYSGVPDRFTGSGSGTDFTLTISNVQSEDLAEYFCQQYSSYPLTFGSGTKLEIK	0.28	0.000203	724000
2.1^hi Fab, high-affinity variant of clone 2.1 (Fab, V domains shown) VH: EVQLQESGPSLVKPSQTLSLTCSVTGASITSGYWNWIRKFPGNRLEYMGYISYSGGTYYNPSLKSRISITRDTSKNQYYLQLNSVTTEDTATYYCARDFDVWGAGTTVTVSS VL: DIVMTQSQKFMSTSVGDRVSVTCKASQNVGTNVGWFQQKPGQSPKSLIYSASYRYSGVPDRFTGSGSGTDFTLTISNVQSEDLAEYFCHQYYSYPLTFGSGTKLEIK	–	6.34e-05	1.03e+06
clone 2.1 Fab TA_5 (Fab, V domains shown) VH: EVQLQESGPSLVKPSQTLSLTCSVTGASITSGYWNWIRKFPGNKLEYMGYISYSGSTYYNPSLKSRISITRDTSKNQYYLQLNSVTTEDTATYYCARDFDVWGAGTTVTVSS VL: DIVMTQSQKFMSTSVGDRVSVTCKASQNVGTNVAWYQQKPGQSPKALIYSASYRYSGVPDRFTGSGSGTDFTLTISNVQSEDLAEYFCQQYNSYPLTFGSGTKLEIK	3.81	0.000858	225000
clone 2.1 Fab TA_23 (Fab, V domains shown) VH: EVQLQESGPSLVKPSQTLSLTCSVTGDSITSGYWNWIRKFPGNKLEYMGYISYSGSTYYNPSLKSRISITRDTSKNQYYLQLNSVTTEDTATYYCARDFDVWGAGTTVTVSS VL: DIVMTQSQKFMSTSVGDRVSVTCKASQNVGTNVAWYQQKPGQSPKALIYSASYRYSGVPDRFTGSGSGTDFTLTISNVQSEDLAEYFCHQYNSYPLTFGSGTKLEIK	13.3	0.00133	100000
